Measured values published in the DeepSol protein solubility set.

test: soluble on expression in E. coli; label from the status in PepcDB or PDB records

Row | Sequence | soluble on expression in E. coli
1 | MGSDKIHHHHHHMRVLGLILAGGKSDRLWPLTKVRASAAVPVFGKYRAIDFTLSNMVNSGIRKVGILTQYNPRSLMDHLGSGKEWDLDRKSGGLFILQPYVGPNREVWYRGTADAIFQNMTILRRGEEDHVLIGSGDHIYKMIYRDLFNYHLKKGADITLVVKELDETYNLSEYGIVQLDDDMRVVEIEEKPAHPKGNIAFLGVYFMNKELLKELLYATVPQGKYDLLLDIVIPNLDRLKVYAYRFDGYWRNVKKGIKEYYRINMDILKKEVRDELFYRNGKVYTKLKDLPPPKFTTTAVVENSLIADGSIVSGTVRNSVIFRNVRIKVGAVVENSIIMENTVVEEGAVLRNVILDKNCIVREGRVIEGDTELPVFEKRAVL | not soluble
2 | MNSLSTEQLGIGYGDRVIVEDLNISIPKGKITTLIGPNGCGKSTILKTMSRIMRSHAGAVYLNGKAIHKMSTKDIAKDMAILPQTPEAPSGLTVHELVSYGRFPHQSGFGRLNDEDRRIIKWALEETGMAEYAERPIEALSGGQRQRVWIAMALAQGTELLLLDEPTTYLDLAHQLEILQLLDRLNKEQGRTILMVIHDLNHAARFSHYMIALKKGTVIKEGTALEVMTPDILKQVFQIDAEIVTDPRTNKPVCLTYDLIKNEKELVTV | not soluble
3 | MNLNIDWSKDFQEFQEILNSGIHPEWLYCAKANLVLEPAYTGEGKQFFSTQDIIYASKIIPFFLEHHHHHH | not soluble
4 | MRKMMRQSLQAVLPEISGNKTSLLRKSVCSDLLTLFNSPHSALPSLLVSGMPEWQVHNPSDKHLQSWYCRQLRSALLFHEPRIAALQVNLKEAYCHTLAISLEIMLYHDDEPLTFDLVWDNGGWRSATLENVS | not soluble
5 | MAETKRMTVSQALVEFLGHQWTVDGDIRERTIPGMFGIFGHGNVAGIGQALKQYNVEQPELMPYYQARNEQAMVHQSVGYARMHRRRGTYASAASVGPGATNLLTGAALATTNRLPALLLPSDTFATRVADPVLQQLEQPWDIGLTVNDAFRPVSKFFDRVQRPEQLFSIALAAMRVLTDPAETGAVTIALPEDVQAEMLDVPVEFLQDREWHIRRPR | not soluble
6 | MGLRRGWTPPWPLDLGIVLGPLRRGPGDPTFRTTPDGAVWRASRTPAGPGTLRVALRGGAVEAEAWGPGAEWLLHQLPEMLGSADDPDAFEPRHRLVAVTRHRRPGLRLTRTGLVLESLIPSVLEQKVTADEAYRAWRLLVRKFGEPAPGPVEGRMHVMPEPRTWALIPSWEWHRAGVDNKRASTILRAVRVAARLEQAMGMEPAQAQARLEVVSGIGPWTSAETVQRSHGAADSVTVGDLHLPRIVGYALAGDRDADDAAMLELLAPYAGQRHRAARLILLSGRTPPAAALEHHHHHH | not soluble
7 | SLSSLDAVLSQDLIVADGPAVEVGDSLEVAYTGWLFQNHVLGQVFDSTANKDKLLRLKLGSGKVIKGWEDGMLGMKKGGKRLLIVPPACAVGSEGVIGWTQATDSILVFEVEVRRVKFAR | soluble
8 | MTKSLFRQSFLTDTLDVHIDVAPAEQVLSNGVQLKLYQRGVLEVIPENPTQETKNIIISCGIHGDETAPMELVDSIIKDIESGFQKVDARCLFIIAHPESTLAHTRFLEENLNRLFDEKEHEPTKELAIADTLKLLVRDFYQDTEPKTRWHLDLHCAIRGSKHYTFAVSPKTRHPVRSKALVDFLDSAHIEAVLLSNSPSSTFSWYSAENYSAQALTMELGRVARIGENALDRLTAFDLALRNLIAEAQPEHLSKPCIKYRVSRTIVRLHDDFDFMFDDNVENFTSFVHGEVFGHDGDKPLMAKNDNEAIVFPNRHVAIGQRAALMVCEVKTRFEEGELVYDLEHHHHHH | soluble
9 | MWLSSEELSAKKTACHVRNVESNKEFADSDIVASFVHNRPKDLKNLTFERHGKGGRKKAPIFSVKGDISEHVVEVGADVNCLDEGFDFAVALVDKRTGEATYRPARFYSFESKFSEDIEKIFSDKKESSSEEYKNDFSIGAEKWAEKRRQLTSNFGSSKKIKMDEAAQRRTINQETLDEMRKTAFASNSNVKTEDGAADVKLENITMMNKAESSILPPAVQTELSRDIYPISLFLEDIEIDAIESIATELMEKKKKEKLEAGIPECVTLIMYNEKTKQRAAAYLLLSTMIEILTKMGKQRQLLRKDLSELKMPDILRQKVQAQFFNDSTNEKGYTGRGAERIRLNVTDYDRFIAHTLALALTLAPEHKVPITPFQQALSYQPSKLEKMFQALGADLIRLDVASAQTLRSLRAAILLKPPSLEQKGPRKIIRR | not soluble
10 | MSVNFFSLITSSWERGLFLKSCKNNSGTDSNRFFSFSVPPNLLDNLLPPLLVRKTLSSSSSKSCGIGGIYFKSSAVNVSEDGLTASTFFSILLPKNFLGITKLFCRIFLLSCPHNYKWFIHLINPFEYENFINIE | soluble
11 | MGAIEDIYEDLETDVPEEEFREAVEEKVEQMGGLADEETAAMLLAHELNENEVNAIADIEPGMDEVKFLAKVMAIGDLKTFERDDEDEDGRVINVEAADESGSLRLAFWDGQAVDIDEGKLEVGDVLRVKGRPKDGYNGLEVSVDKAEPDEDATIDVEPGAGSSIDALTMGQSDVTLRGLVLDTDSIRTFDRDDGSEGRVSNLTLGDETGRIRVTLWDDRADRADELDAGAAVEIIDGYVRERDGSLELHVGDQGAVDEVEDDVAFEPDADPIAEVELEETADIAGVVRSADPKRTFDRDDGSEGQVRNVRIQDATGDIRVALWGDKADKDIAPGDEVLAADVEIQDGWQDDKEASASWNSTIVVLDDGADLATGGAGGGASAETTDAEHAGLSSFGDEGDDTDADSSGNEAAAVSAGTGDTSPDGGAQSAGQQVEFTGTVVQTGDPVVLDDGEQTMSVETGERVQLGQEITVRGELRDDRLHAEDVFLEHHHHHH | not soluble
12 | MPGWRSICAVMGLTFTGCVFIQGSARAQDGNKATAVLELYTSQGCKSCPPADKNFAKYADDPNVLALSFHVNYWDYMGWRDTLATQDNTDRQNSYRNAFHAKMIYTPQAIINGAVEANGRNGAAINAKIAANKLDVPVSIQQLNDGRLSIDIGAGKKPRDPVHVVLFYFRDSATIPITEGENAGKAITYRNTVSDIDTIGMWDGKPLKIELPASELKRKDVTGCAVVLQETRSDNSLGPMHGAAMFKQKRPVSFLEHHHHHH | not soluble
13 | SLTTTEVVMENVTAFWEEGFGELFEKAKQNNNNRKTSNGDDSLFFSNFSLLGTPVLKDINFKIERGQLLAVAGSTGAGKTSLLMMIMGELEPSEGKIKHSGRISFCSQFSWIMPGTIKENIIFGVSYDEYRYRSVIKACQLEEDISKFAEKDNIVLGEGGITLSGGQRARISLARAVYKDADLYLLDSPFGYLDVLTEKEIFESCVCKLMANKTRILVTSKMEHLKKADKILILHEGSSYFYGTFLELYHYPADRFVAGFIGSPKMNFLPVKVTATAIDQVQVELPMPNRQQVWLPVESRDVQVGANMSLGIRPEHLLPSDIADVILEGEVQVVEQLGNETQIHIQIPSIRQNLVYRQNDVVLVEEGATFAIGLPPEDCHLFREDGTACRRLHKEPGV | soluble
14 | MGSDKIHHHHHHMLSNRELLQKLLKGIETGDPAAAAVVNEEKYIQHYPQTHEGSEGLAVLFARLAKTNPRVRFVRVFEDGDFAFAHNEYDFASLRVAFEVFRFENGRAVEHWDNIQPMLGPNPSGRGMLDGVTQITDLERTEANRALVRDFAQRVLVGRQLDFLGSCVDDGLIQHDPEIADGRAAYRAALEAVTNGQPRLHYTRLHRVLAEGNFVLCMCEGERDGVHSSFYDLFRVENDTIIEHWNTIEAIAPRNEWKNENGKF | not soluble
15 | MKPDETPMFDPSLLKEVDWSQNTATFSPAISPTHPGEGLVLRPLCTADLNRGFFKVLGQLTETGVVSPEQFMKSFEHMKKSGDYYVTVVEDVTLGQIVATATLIIEHKFIHSCAKRGRVEDVVVSDECRGKQLGKLLLSTLTLLSKKLNCYKITLECLPQNVGFYKKFGYTVSEENYMCRRFLK | soluble
16 | MGSDKIHHHHHHMNYIYSFINGDFMRFFNREKEITEILSILEGNPDLVYFVYGPLNSGKTALISEIINNRIDKNKYVVFYINLRGIFISKYKDFIEVLFEEYEEDRKPVEIIKSLIKDVPSLCGIPTPKNTLEEILKKKTTKNVFKYITNVLMDIKKEGKQPIIIIDELQKIGDMKINGFLIYELFNYFVDLTKELHLCHVFCLSSDSLFIEQVYSEAMLKDRVDYILVDDFDKETALKFMDFLAEEILNKKLSDDEKELIYSYVGGKPILIIKVIKKLKIKGLKETLDEMLRDEMQKLKYFLEDIKEKDEESYNKIADALEIFKDSYEIEDIKIPKNIREFLVKKNILFLNPQKGTLKPQSYLVWNAIKRLL | not soluble
17 | MGSDKIHHHHHHMQFLKVYSVFGEEVVGCHVRIENLSVACSVVSAGGTHPSEKCVCNHEFSSVSLHQKKHPHLEKLLETSRPIKLDSSSKVLILSDLHMGNGGRRDEFRRNSELVRSMLQDYYLPGGYSLVLNGDIEELFKFSVEDITKVWGHIYDLFLQFEKNGFFWKTYGNHDSDLFEERNYPLSKHLLESIRFQYGDEVMLLFHGHQASILLWETYPLVSRAVVLFLRYVAKPIGIRNFSTAYNSRRRFAIEKSIYEFSNQAKIVSIIGHTHRPLFESLSKVDHLKYKIEELCRQYPSALPEERLAIQERIGELKAMLDACFTEGKKIGLRSGRYNNIAIPSVFNSGCAIGKRGVTALEIDGDRIRLVYWFKEKQGRRFVSDRNSEPEQLGDTGFYRIVLNEDHLDYVFSRIRLLA | not soluble
18 | MGSDKIHHHHHHMSVPQRPHQFVLTLSCPSAAGQVAAVVGLLDRHRCYVDELTVFDDDLSARFFVRCVFHATDDADALRVDALRREFEPIAERFRMQWAIHDVAARPKVLIMVSKLEHCLADLLFRWKMGELKMDIVGIVSNHPDFAPLAAQHGLPFRHFPITADTKAQQEAQWLDVFETSGAELVILARYMQVLSPEASARLANRAINIHHSFLPGFKGAKPYHQAHARGVKLIGATAHFVTDDLDEGPIIEQVVERVDHSYRPEQLLAVGRDVECITLARAVKAFIERRVFLNGDRTVVFQ | not soluble
19 | AHHHHHHGSVDWELMKKIIESPGVSGYEHLGIRDLVVDILKDVADEVKIDKLGNVIAHFKGSAPKVMVAAHMDKIGLMVNHIDKDGYLRVVPIGGVLPETLIAQKIRFFTEKGERYGVVGVLPPHLRREAKDQGGKIDWDSIIVDVGASSREEAEEMGFRIGTIGEFAPNFTRLSEHRFATPYLDDRICLYAMIEAARQLGEHEADIYIVASVQEEIGLRGARVASFAIDPEVGIAMDVTFAKQPNDKGKIVPELGKGPVMDVGPNINPKLRQFADEVAKKYEIPLQVEPSPRPTGTDANVMQINREGVATAVLSIPIRYMHSQVELADARDVDNTIKLAKALLEELKPMDFTP | soluble
20 | MSGFSVYVGNAPFQTTEDDLGNYFSQAGNVSNVRIVCDRETGRPRGFAFVEFTEEAAAQRAVDQFNGVDFNGRALRVNLAQNRNN | not soluble
21 | MYLINQNGWIEVICGSMFSGKSEELIRRVRRTQFAKQHAIVFKPCIDNRYSEEDVVSHNGLKVKAVPVSASKDIFEHITEELDVIAIDEVQFFDGDIVEVVQVLANRGYRVIVAGLDQDFRGLPFGQVPQLMAIAEHVTKLQAVCSVCGSPASRTQRLIDGEPAAFDDPIILVGASESYEPRCRHCHAVPANKDK | not soluble
22 | MARDGAVYACQSCGAVQTKWSGQCSACQSWNTLVEEVSAKPPGALSATKATRVRGLQFTGLESETAPPPRILTGVDEFDRVCGGGVVPGSALLIGGDPGVGKSTLLLQVCASAAARGVSCAYISGEEAVEQIRGRADRMGLAKANVSLAAETALRDILDGLKRDNFDLVVIDSIQTMWSDAHEAGPGTVTQVRACATELVRLAKKKGVAILLVGHVTKDGQIAGPRVVEHLVDAVLSFEGERGYPFRILRGAKNRFGATDEIGVFEMGDVGLREVKNPSALFLNEGGERAAGAAVFAGIEGSRPVLVEFQALVAPSAYGTPRRAVVGWDSGRLAMVLAVLEARCGLGFGDKDVYLNVAGGLRITEPAADLAAAAALASSALDVALPQDCVVFGELSLSGEVRPVSRMETRLKEAAKLGFGRALGPLAGLPEGGGALPVAGVARLTDAVRRIGDEIWTSLTLEHHHHHH | not soluble
